According to IntAct's records for PubMed 22632967:

B1: Ribonucleoside-diphosphate reductase subunit M2 (Homo sapiens), P31350 (parent)
chain: MLSLRVPLAPITDPQQLQLSPLKGLSLVDKENTPPALSGTRVLASKTARRIFQEPTEPKTKAAAPGVEDEPLLRENPRRFVIFPIEYHDIWQMYKKAEASFWTAEEVDLSKDIQHWESLKPEERYFISHVLAFFAASDGIVNENLVERFSQEVQITEARCFYGFQIAMENIHSEMYSLLIDTYIKDPKEREFLFNAIETMPCVKKKADWALRWIGDKEATYGERVVAFAAVEGIFFSGSFASIFWLKKRGLMPGLTFSNELISRDEGLHCDFACLMFKHLVHKPSEERVREIIINAVRIEQEFLTEALPVKLIGMNCTLMKQYIEFVADRLMLELGFSKVFRVENPFDFMENISLEGKTNFFEKRVGEYQRMGVMSSPTENSFTLDADF
partner: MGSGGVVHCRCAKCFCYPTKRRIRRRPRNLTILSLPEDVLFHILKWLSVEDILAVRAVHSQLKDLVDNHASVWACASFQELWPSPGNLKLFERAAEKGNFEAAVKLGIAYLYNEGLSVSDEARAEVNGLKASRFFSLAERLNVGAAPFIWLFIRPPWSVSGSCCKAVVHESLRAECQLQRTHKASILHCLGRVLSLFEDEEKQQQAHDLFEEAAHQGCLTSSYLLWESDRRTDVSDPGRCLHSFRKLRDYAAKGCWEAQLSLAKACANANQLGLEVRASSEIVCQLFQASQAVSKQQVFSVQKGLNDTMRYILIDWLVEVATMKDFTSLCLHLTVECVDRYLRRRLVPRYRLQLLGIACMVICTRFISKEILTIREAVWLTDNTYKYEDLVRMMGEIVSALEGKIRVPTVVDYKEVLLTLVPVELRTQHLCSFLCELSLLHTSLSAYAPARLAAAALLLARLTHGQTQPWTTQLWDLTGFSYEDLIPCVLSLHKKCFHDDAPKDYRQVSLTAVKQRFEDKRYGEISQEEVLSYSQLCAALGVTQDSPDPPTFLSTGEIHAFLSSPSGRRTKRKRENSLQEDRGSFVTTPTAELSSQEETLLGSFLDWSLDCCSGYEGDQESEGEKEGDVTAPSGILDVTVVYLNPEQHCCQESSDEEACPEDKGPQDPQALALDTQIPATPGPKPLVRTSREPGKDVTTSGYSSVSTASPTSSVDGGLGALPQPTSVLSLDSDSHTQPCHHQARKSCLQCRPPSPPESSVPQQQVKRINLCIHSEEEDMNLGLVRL
B2: Cyclin-F (Homo sapiens), P41002 (parent)
chain: B1 partner
partner: B1 chain
B3: Cyclin-F (Homo sapiens), P41002 (parent)
chain: B1 partner

Variants of: B1
Conditions: with ccnf_human CCNF

Q: MLSLRVPLAPITDPQQLQLSPLKGLSLVDKENTPPALSGTRVLASKTAARAFQEPTEPKTKAAAPGVEDEPLLRENPRRFVIFPIEYHDIWQMYKKAEASFWTAEEVDLSKDIQHWESLKPEERYFISHVLAFFAASDGIVNENLVERFSQEVQITEARCFYGFQIAMENIHSEMYSLLIDTYIKDPKEREFLFNAIETMPCVKKKADWALRWIGDKEATYGERVVAFAAVEGIFFSGSFASIFWLKKRGLMPGLTFSNELISRDEGLHCDFACLMFKHLVHKPSEERVREIIINAVRIEQEFLTEALPVKLIGMNCTLMKQYIEFVADRLMLELGFSKVFRVENPFDFMENISLEGKTNFFEKRVGEYQRMGVMSSPTENSFTLDADF [R49A;I51A] was tested. Which “effect of a mutation on the interaction” value did it give?
A: disrupting interaction strength

Q: Which “effect of a mutation on the interaction” value does the source give for MLSLRVPLAPITDPQQLQLSPLKGLSLVDKENAPPALSGTRVLASKTARRIFQEPTEPKTKAAAPGVEDEPLLRENPRRFVIFPIEYHDIWQMYKKAEASFWTAEEVDLSKDIQHWESLKPEERYFISHVLAFFAASDGIVNENLVERFSQEVQITEARCFYGFQIAMENIHSEMYSLLIDTYIKDPKEREFLFNAIETMPCVKKKADWALRWIGDKEATYGERVVAFAAVEGIFFSGSFASIFWLKKRGLMPGLTFSNELISRDEGLHCDFACLMFKHLVHKPSEERVREIIINAVRIEQEFLTEALPVKLIGMNCTLMKQYIEFVADRLMLELGFSKVFRVENPFDFMENISLEGKTNFFEKRVGEYQRMGVMSSPTENSFTLDADF [T33A] here?
A: decreasing interaction strength

Variants of: B1
Conditions: with ccnf_human CCNF
Remark: another data set of the same source

Q: Which “effect of a mutation on the interaction” value does the source give for MLSLRVPLAPITDPQQLQLSPLKGLSLVDKENAPPALSGTRVLASKTARRIFQEPTEPKTKAAAPGVEDEPLLRENPRRFVIFPIEYHDIWQMYKKAEASFWTAEEVDLSKDIQHWESLKPEERYFISHVLAFFAASDGIVNENLVERFSQEVQITEARCFYGFQIAMENIHSEMYSLLIDTYIKDPKEREFLFNAIETMPCVKKKADWALRWIGDKEATYGERVVAFAAVEGIFFSGSFASIFWLKKRGLMPGLTFSNELISRDEGLHCDFACLMFKHLVHKPSEERVREIIINAVRIEQEFLTEALPVKLIGMNCTLMKQYIEFVADRLMLELGFSKVFRVENPFDFMENISLEGKTNFFEKRVGEYQRMGVMSSPTENSFTLDADF [T33A] here?
A: disrupting interaction strength

Variants of: B2
Conditions: with rir2_human RRM2, P31350

Q: Which “effect of a mutation on the interaction” value does the source give for L35A;P36A here?
A: increasing interaction strength

Variants of: B3
Conditions: with cp110_human CCP110, O43303
cp110_human CCP110, O43303, sequence (O43303 whole entry): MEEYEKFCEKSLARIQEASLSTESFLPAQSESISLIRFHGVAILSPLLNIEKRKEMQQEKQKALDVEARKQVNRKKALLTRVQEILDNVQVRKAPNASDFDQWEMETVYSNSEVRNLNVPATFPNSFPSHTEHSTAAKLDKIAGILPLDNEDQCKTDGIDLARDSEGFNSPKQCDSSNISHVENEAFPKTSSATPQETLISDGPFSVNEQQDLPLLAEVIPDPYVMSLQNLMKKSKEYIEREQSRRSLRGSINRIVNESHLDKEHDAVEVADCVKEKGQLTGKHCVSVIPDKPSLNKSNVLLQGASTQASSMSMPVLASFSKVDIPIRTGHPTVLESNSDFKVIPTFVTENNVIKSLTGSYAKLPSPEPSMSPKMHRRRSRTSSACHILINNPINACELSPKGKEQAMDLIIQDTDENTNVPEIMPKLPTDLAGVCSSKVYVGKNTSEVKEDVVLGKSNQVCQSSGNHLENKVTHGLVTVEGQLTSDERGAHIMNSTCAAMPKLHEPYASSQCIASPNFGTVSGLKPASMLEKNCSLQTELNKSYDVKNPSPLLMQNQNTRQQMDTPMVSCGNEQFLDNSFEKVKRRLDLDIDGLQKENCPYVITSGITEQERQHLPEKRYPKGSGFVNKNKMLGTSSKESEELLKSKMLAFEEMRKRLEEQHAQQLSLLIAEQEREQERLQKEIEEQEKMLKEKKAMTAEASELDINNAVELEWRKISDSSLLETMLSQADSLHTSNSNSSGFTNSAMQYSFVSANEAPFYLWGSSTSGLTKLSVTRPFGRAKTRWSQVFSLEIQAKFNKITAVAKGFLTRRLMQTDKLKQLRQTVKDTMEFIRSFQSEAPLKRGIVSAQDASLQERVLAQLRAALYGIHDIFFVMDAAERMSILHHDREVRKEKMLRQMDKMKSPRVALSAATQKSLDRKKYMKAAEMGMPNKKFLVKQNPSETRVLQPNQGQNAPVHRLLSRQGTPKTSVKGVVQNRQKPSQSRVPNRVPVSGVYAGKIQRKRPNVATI

Q: L35A;P36A was tested. Which “effect of a mutation on the interaction” value did it give?
A: increasing interaction strength
